This assay deals with AcrIIA22 (wild type, thrombin-cleaved) (Clostridial genus CAG-217 (human gut metagenome; taxonomy inferred by the paper)). In words: SEC. A general note: Size exclusion chromatography separates by hydrodynamic size, large species first.

Several values for one entry are separate records, joined by “and”; a condition that tells them apart may be missing. Equal values may be shown once.

On to “AcrIIA22 (wild type, thrombin-cleaved) (natural protein)”, for which the stoichiometry N (commonly the number of molecules, sites or subunits per partner or assembly) was 4 and 5.

For the origin of these results see article doi:10.1101/2020.09.28.317578.
